Reference: article PMC3541406, “Solution Structure of an Archaeal DNA Binding Protein with an Eukaryotic Zinc Finger Fold”

T1: AFV1p06 (ORF59a) (Acidianus filamentous virus 1? (AFV1, …, UniProt Q70LE5 1-59))
T1 sequence: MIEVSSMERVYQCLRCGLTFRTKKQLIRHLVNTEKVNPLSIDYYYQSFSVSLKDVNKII

B1: dsATcomb (dsDNA)
DNA 1: AATGATTCTAAGTATCTTAGAAACA
DNA 2: TGTTTCTAAGATACTTAGAATCATT
B2: dsGCcomb (dsDNA)
DNA 1: AGGGTGGCAGCGTCGGAGCCTCGCA
DNA 2: TGCGAGGCTCCGACGCTGCCACCCT

How the values were obtained:
Conditions in all cases: protein: recombinant; tags: none; blunt
AFV1p06 (ORF59a) [1] = molecular target: T1, AFV1p06 (ORF59a); experiment: competition; vs labelled dsGCcomb 75 nM, 0.5 uM protein; 50 mM HEPES pH 7.4, 10 uM ZnCl2, 150 mM NaCl, 5% glycerol, 0.02% Tween, 3 mM DTT, 50 ng/uL salmon sperm DNA, 15 min at 48 C; 6% native PAGE in TBE
AFV1p06 (ORF59a) [2] = molecular target: T1, AFV1p06 (ORF59a); experiment: competition; vs labelled dsATcomb 75 nM, 0.5 uM protein; 50 mM HEPES pH 7.4, 10 uM ZnCl2, 150 mM NaCl, 5% glycerol, 0.02% Tween, 3 mM DTT, 50 ng/uL salmon sperm DNA, 15 min at 48 C; 6% native PAGE in TBE
AFV1p06 (ORF59a) [3] = molecular target: T1, AFV1p06 (ORF59a); experiment: EMSA; 10 uM ZnCl2, 50 ng/uL salmon sperm DNA, 75 nM probe, 0-2 uM protein; 50 mM HEPES pH 7.4, 10 uM ZnCl2, 150 mM NaCl, 5% glycerol, 0.02% Tween, 3 mM DTT, 50 ng/uL salmon sperm DNA, 15 min at 48 C; 6% native PAGE in TBE

Binder | binding signal (AFV1p06 (ORF59a) [1]) | binding signal (AFV1p06 (ORF59a) [2]) | binding signal (AFV1p06 (ORF59a) [3])
B1 | ~5 molar ratio of cold dsATcomb to hot dsGCcomb for similar displacement | – | –
B2 | – | ~0.5 molar ratio of cold dsGCcomb to hot dsATcomb giving clear signal decrease | ≥ 2 fold more efficient than dsATcomb
